Test results: patent US12365732 (23ANDME, dated 2025)

T1: hu-CD96 (soluble, isoform 2 extracellular domain) (human, UniProt P40200 22-516, biotinylated in Octet and blocking ELISA)
T1 construct: the assays name only hu-CD96; also called hCD96; biotinylated hu-CD96
T1 sequence: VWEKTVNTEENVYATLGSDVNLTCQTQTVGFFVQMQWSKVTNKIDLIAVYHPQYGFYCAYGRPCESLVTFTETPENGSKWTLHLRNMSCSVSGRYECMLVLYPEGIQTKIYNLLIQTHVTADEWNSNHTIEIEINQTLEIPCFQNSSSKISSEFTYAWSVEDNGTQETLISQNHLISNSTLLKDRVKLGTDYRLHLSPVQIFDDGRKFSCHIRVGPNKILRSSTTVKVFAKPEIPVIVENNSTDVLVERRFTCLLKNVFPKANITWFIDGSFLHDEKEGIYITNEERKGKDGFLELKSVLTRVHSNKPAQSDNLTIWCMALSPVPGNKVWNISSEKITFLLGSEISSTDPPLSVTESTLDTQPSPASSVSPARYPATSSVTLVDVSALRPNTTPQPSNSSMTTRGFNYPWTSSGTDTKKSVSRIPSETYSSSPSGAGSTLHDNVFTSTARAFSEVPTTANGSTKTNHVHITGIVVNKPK


Experiments:
[1] = biological target: T1, hu-CD96 (soluble, isoform 2 …); experiment: BLI (Octet), biotin-CD96 on SA, Fab analyte
Description: The binding affinity of the generated Fab variants of mAb1.v7 for hu-CD96 and cy-CD96 was determined by OCTET (Pall ForteBio) Bio-Layer Interferometry (BLI) binding analysis. The biotinylated hu-CD96 or biotinylated cy-CD96 was diluted to a final concentration 10 µg/mL in experimental buffer (PBS buffer with 0.01% Tween-20) and immobilized on the Streptavidin Capture (SA) biosensors (Pall ForteBio). Three-fold serial dilutions of the mAb1.v7 Fab variants starting at 1 µM as analytes were diluted in the experimental buffer (PBS buffer with 0.01% Tween-20). The biosensors were equilibrated in experimental buffer at 30° C. for ten minutes prior to starting the experiment. The kinetics experiment was performed with the following steps, where the step name, solution and time are listed: Baseline (buffer—60 seconds), Loading (biotinylated antigen—200 seconds), Baseline 2 (buffer—minimum 120 seconds), Association (analyte—200-300 seconds) and Dissociation (buffer—1000 seconds). The resulting BLI signal from analyte association and dissociation from the […] was analyzed using the Octet Data Analysis software (Pall ForteBio). First a reference subtraction was performed on all recorded traces using the reference well (biosensor that underwent same steps as experimental wells but no analyte for the Association step) and then all the traces were aligned to the beginning of the Association step. The entirety of the Association and Dissociation steps were used in a Global fit (minimum of four analyte concentration traces) in a 1:1 binding model to calculate the K_D values for the 16 selected individual mAb1.v7 Fab variants as summarized in Table 9 (below).

[2] = biological target: T2, hu-CD96 Fc (human, biotinylated in Table 16); experiment: SPR 25C, CD96-Fc on Protein A, Fab analyte
T2 construct: also called biotinylated hu-CD96-Fc
Description: Briefly, hu-CD96 Fc and cy-CD96 Fc were diluted at 10 µg/mL in HBS-P buffer (0.01 M HEPES pH 7.4, 0.15 M NaCl, 0.005% Surfactant P20) and applied to the Protein A chip at 30 µL/min flow rate for 60 s in flow cell 2 (FC2). Then flow 3-fold serial dilutions of mAb1.v7 Fab variants in HBS-P buffer (0.01 M HEPES pH 7.4, 0.15 M NaCl, 0.005% surfactant P20) from (0.4 nM) to high (1000 nM) were injected (flow rate: 30 µL/min) at 25° C. to both flow cell 1 (FC1) and flow cell 2 (FC2). The sensorgram was recorded and subject to reference and buffer subtraction before evaluating by BIA- CORE® 8K Evaluation Software (version 1.1.1.7442). Association rates ($kon$) and dissociation rates ($koff$) were calculated using a simple one-to-one Langmuir binding model. The equilibrium dissociation constant (K_D) was calculated as the ratio of $koff/kon$, and the values determined for the mAb1.v7 and the 5 Fab variants are summarized in Table 10 (below).

[3] = biological target: T1, hu-CD96 (soluble, isoform 2 …); experiment: ELISA, blocks biotin-CD96 binding to coated hu-CD155-mFc
Description: The selected 5 affinity matured Fab variants of mAb1.v7 Fab were assayed for blocking of human CD155 (hu-CD155) receptor by ELISA as follows. Briefly, 96-well MAXISORP® flat bottom plates (Thermofisher, Cat #439454) were coated overnight at 4° C. with 2 µg/mL goat anti-mouse Fc (Thermofisher, Cat #31168) in PBS. After removing the coating solution, unspecific binding was blocked with PBS containing 1% bovine serum albumin (BSA) and incubation at room temperature for one hour. Plates were then washed five times in PBS with 0.05% TWEEN®-20 (wash buffer) and added […] hu-CD155-mFc in PBS for 1 hour in room temperature. During blocking period, 50 µL/well of 4 nM biotinylated hu-CD96 or 40 nM biotinylated cy-CD96 with serial dilution of the Fab variants 50 µL/well (starting at 2 µM, 1:3 dilution) for two hours at room temperature with PBS containing 0.5% BSA and 0.05% Tween 20 (ELISA buffer) in NUNC F plate (Thermofisher, Cat #269620). Then transferred the antigen-antibody mix solution 80 µL/well into hu-CD155-mFc coated wells at room temperature for 15 min. Plates were then washed with wash buffer to which was added 50 µL/well Streptavidin poly-HRP (Thermofisher, Cat #21140) diluted 1:5000 in ELISA buffer at room temperature for one hour with agitation. […] Enzymatic color development was stopped with 50 µL/well of TMB stop solution (VWR, Cat #95059-200). Plates were analyzed with a SpectraMax i3X plate reader (Molecular Devices) at 450 nm. […] The blocking $IC50$ values for the mAbv1.7 and the 5 selected affinity matured Fab variants (mAb1.v7.2, mAb1.v7.9, mAb1.v7.16, mAb1.v7.48, mAb1.v7.70) are summarized in Table 10 (above).

Binder | apparent Kd (pooled screen) [1] [pM] | Kd [2] [pM] | koff [2] [s⁻¹] | kon [2] [M⁻¹ s⁻¹] | apparent IC50 (pooled screen) [3] [pM] | Kd [1] [pM] | IC50 [3] [pM]
mAb1.v7 Fab (Fab, V domains shown) VH: EVQLVQSGAEVKKPGASVKVSCKASGFTFTNNWMHWVRQAPGQGLEWIGMIHPNSGITNINEKFKNRVTMTTDTSTSTAYMELRSLRSEDTAVYYCRSDGTYEGYFDYWGQGTLVTVSS VL: DIQLTQSPSSLSASVGDRVTITCKASQNVGTAIVWYQQKPGKAPKVLIYSASTRYTGVPSRFSGSGSGTDFTLTISSLQPEDFATYYCQQYSSSPLTFGQGTKVEIK | 76000 | 44600 | 0.000817 | 18300 | 740 |  | 
mAb1.v7.9 Fab (Fab, V domains shown, also called M34R/P52aM/T97V) VH: EVQLVQSGAEVKKPGASVKVSCKASGFTFTNNWRHWVRQAPGQGLEWIGMIHMNSGITNINEKFKNRVTMTTDTSTSTAYMELRSLRSEDTAVYYCRSDGVYEGYFDYWGQGTLVTVSS VL: DIQLTQSPSSLSASVGDRVTITCKASQNVGTAIVWYQQKPGKAPKVLIYSASTRYTGVPSRFSGSGSGTDFTLTISSLQPEDFATYYCQQYSSSPLTFGQGTKVEIK |  | 5050 | 7.02e-05 | 13900 |  | ~100 | 420
mAb1.v7.2 Fab (Fab, V domains shown, also called M34R/P52aF/T97V) VH: EVQLVQSGAEVKKPGASVKVSCKASGFTFTNNWRHWVRQAPGQGLEWIGMIHFNSGITNINEKFKNRVTMTTDTSTSTAYMELRSLRSEDTAVYYCRSDGVYEGYFDYWGQGTLVTVSS VL: DIQLTQSPSSLSASVGDRVTITCKASQNVGTAIVWYQQKPGKAPKVLIYSASTRYTGVPSRFSGSGSGTDFTLTISSLQPEDFATYYCQQYSSSPLTFGQGTKVEIK |  | 670 | 1.06e-05 | 15800 |  | 3750 | 700

Second part, the binder after the results:

apparent Kd (pooled screen) [1] [pM] | Kd [2] [pM] | koff [2] [s⁻¹] | kon [2] [M⁻¹ s⁻¹] | apparent IC50 (pooled screen) [3] [pM] | Kd [1] [pM] | IC50 [3] [pM] | Binder
 | 380 | 2.81e-06 | 7380 |  | 1400 | 800 | mAb1.v7.16 Fab (Fab, V domains shown, also called M34R/T97V) VH: EVQLVQSGAEVKKPGASVKVSCKASGFTFTNNWRHWVRQAPGQGLEWIGMIHPNSGITNINEKFKNRVTMTTDTSTSTAYMELRSLRSEDTAVYYCRSDGVYEGYFDYWGQGTLVTVSS VL: DIQLTQSPSSLSASVGDRVTITCKASQNVGTAIVWYQQKPGKAPKVLIYSASTRYTGVPSRFSGSGSGTDFTLTISSLQPEDFATYYCQQYSSSPLTFGQGTKVEIK
 | 1730 | 2.74e-05 | 15900 |  | ~100 | 800 | mAb1.v7.70 Fab (Fab, V domains shown, also called N32R/P52aA/T97V) VH: EVQLVQSGAEVKKPGASVKVSCKASGFTFTNRWMHWVRQAPGQGLEWIGMIHANSGITNINEKFKNRVTMTTDTSTSTAYMELRSLRSEDTAVYYCRSDGVYEGYFDYWGQGTLVTVSS VL: DIQLTQSPSSLSASVGDRVTITCKASQNVGTAIVWYQQKPGKAPKVLIYSASTRYTGVPSRFSGSGSGTDFTLTISSLQPEDFATYYCQQYSSSPLTFGQGTKVEIK
 | 795 | 1.26e-05 | 15900 |  | ~100 | 420 | mAb1.v7.48 Fab (Fab, V domains shown, also called N32R/P52aH/T97V) VH: EVQLVQSGAEVKKPGASVKVSCKASGFTFTNRWMHWVRQAPGQGLEWIGMIHHNSGITNINEKFKNRVTMTTDTSTSTAYMELRSLRSEDTAVYYCRSDGVYEGYFDYWGQGTLVTVSS VL: DIQLTQSPSSLSASVGDRVTITCKASQNVGTAIVWYQQKPGKAPKVLIYSASTRYTGVPSRFSGSGSGTDFTLTISSLQPEDFATYYCQQYSSSPLTFGQGTKVEIK
